T1: mouse Roquin-1 (aa 2–441) (mouse, UniProt Q4VGL6 2-441)
T1 construct: mouse Roquin-1 aa 2-441; also called Roquin (aa 2–441)
T1 sequence (looked up): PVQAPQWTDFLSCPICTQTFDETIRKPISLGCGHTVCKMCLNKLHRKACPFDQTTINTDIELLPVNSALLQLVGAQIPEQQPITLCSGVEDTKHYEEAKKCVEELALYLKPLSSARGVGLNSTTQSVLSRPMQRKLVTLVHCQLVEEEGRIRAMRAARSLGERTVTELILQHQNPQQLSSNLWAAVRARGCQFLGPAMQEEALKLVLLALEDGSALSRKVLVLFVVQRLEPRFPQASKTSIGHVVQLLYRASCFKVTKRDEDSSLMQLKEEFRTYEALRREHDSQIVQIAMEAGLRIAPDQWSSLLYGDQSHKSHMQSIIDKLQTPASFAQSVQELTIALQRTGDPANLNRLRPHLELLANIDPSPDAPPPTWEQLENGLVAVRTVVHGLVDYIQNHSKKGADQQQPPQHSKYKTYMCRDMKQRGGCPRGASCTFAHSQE

B1: human NUFIP2 (aa 255–411) (domain or fragment, UniProt Q7Z417 255-411, looked up)
chain: KQGLETFKPDYSEQKGNRVDGSKPIWKYETGPGGTSRGKPAVGDMLRKSSDSKPGVSSKKFDDRPKGKHASAVASKEDSWTLFKPPPVFPVDNSSAKIVPKISYASKVKENLNKTIQNSSVSPTSSSSSSSSTGETQTQSSSRLSQVPMSALKSVTS
notes: His6-SUMO cleaved off by PreScission protease; source: E. coli BL21(DE3)pRIL, purified (HisTrap, ion exchange, Superdex 75); not shown: His6-SUMO, N-terminal, cleaved
B2: mouse Fmrp (aa 1–132) (domain or fragment)
chain: not shown
notes: His6-GST cut off by PreScission protease; source: E. coli BL21Star(DE3), purified (HisTrap, GSTTrap, Superdex 75); not shown: His6-GST, N-terminal, cleaved

The target of test [1] is T1, mouse Roquin-1 (aa 2–441). The test is described as follows: SPR; BIACORE 3000; Roquin (aa 2–441) immobilised on CM5 chip by amine coupling; NUFIP2 (aa 255–411) injected at 0.063-4 μM, 30 μL/min, 20 °C; 150 mM NaCl, 0.05% Tween20, 10 mM HEPES; steady-state analysis. The conditions noted are these: both partners purified. A general note: In SPR one partner is held on a chip, and binding of the other changes the refractive index at the surface.

For test [2], the target named is B1. The test is described as follows: SPR; BIACORE 3000; Roquin (aa 2–441) immobilised; 4 μM NUFIP2 (aa 255–411) injected together with 0.016, 0.063, 0.25 or 1 μM FMRP (aa 1–132); 250 mM NaCl, 0.05% Tween20, 10 mM HEPES. The conditions noted are these: both partners purified.

As a reminder, the Kd is a measure of binding affinity in units of concentration. In test [1], B1 displayed a Kd of 182 nM.
B2: the binding result in test [2] is reported as “binds”.

The values are drawn from paper PMC5775257, “Binding of NUFIP2 to Roquin promotes recognition and regulation of ICOS mRNA” (Nature Communications, 2018).
